According to publication doi:10.1101/2023.10.23.563088:

Key:
[1] = target: gramicidin D (the natural mixture of linear gramicidins)
[2] = target: gramicidin D (the natural mixture of linear gramicidins); remark: listed apart in the source

Question: “gramicidin D (the natural mixture of linear gramicidins) (peptide)” was tested. Which ANTS fluorescence quench rate by Tl+ entering DC22:1PC LUVs through gramicidin channels (GFA), rate relative to DMSO control, with ivermectin 1 to 10 μM (12-fold at 1 μM) [1] did it give?
Answer: 17 fold

Question: What about the ANTS fluorescence quench rate by Tl+ entering DC22:1PC LUVs through gramicidin channels (GFA), rate relative to control, with remdesivir 1 to 3 μM (no observable effect at 1 μM) [2] of the same substance?
Answer: 2 fold
